From patent US20220290113

test system: Nme2Cas9 (Neisseria meningitidis); assay: cell_activity; conditions: PAM N4CC; HEK293T, TIDE

Point of comparison: “GGAGUCGCCAGAGGCCGGUGGUGG / GGAGTCGCCAGAGGCCGGTGGTGGATTTCCTC / GAGGAAATCCACCACCGGCCTCTGGCGACTCC [TS16 sgRNA spacer ; TS16 LINC01588 target + PAM]”, activity 28 % indels. Against it:
- GCCUCCCUGCAGGGCUGCUCCC / GCCTCCCTGCAGGGCTGCTCCCCAGCCCAA / TTGGGCTGGGGAGCAGCCCTGCAGGGAGGC [TS6 sgRNA spacer ; TS6 LINC01588 target + PAM] — lower, 20 % indels
- GUGUGUCCCUCUCCCCACCCGUCC / GTGTGTCCCTCTCCCCACCCGTCCCTGTCCGG / CCGGACAGGGACGGGTGGGGAGAGGGACACAC [TS47 sgRNA spacer ; TS47 VEGFA target + PAM] — lower, 23.1 % indels
